From PMC9875641, “Ophthalmic Solution of Smart Supramolecular Peptides to Capture Semaphorin 4D against Diabetic Retinopathy” (Advanced Science, 2022) come the findings set out here.

This assay concerns the target soluble semaphorin 4D. The assay can be described thus: SPR; surface plasmon resonance imaging (SPRi) of TPs and sSema4D; who was immobilised and the conditions are not told in the main text. The note with it: both partners purified. In general terms: In SPR one partner is held on a chip, and binding of the other changes the refractive index at the surface.

soluble semaphorin 4D, sequence (chain, as listed by the source): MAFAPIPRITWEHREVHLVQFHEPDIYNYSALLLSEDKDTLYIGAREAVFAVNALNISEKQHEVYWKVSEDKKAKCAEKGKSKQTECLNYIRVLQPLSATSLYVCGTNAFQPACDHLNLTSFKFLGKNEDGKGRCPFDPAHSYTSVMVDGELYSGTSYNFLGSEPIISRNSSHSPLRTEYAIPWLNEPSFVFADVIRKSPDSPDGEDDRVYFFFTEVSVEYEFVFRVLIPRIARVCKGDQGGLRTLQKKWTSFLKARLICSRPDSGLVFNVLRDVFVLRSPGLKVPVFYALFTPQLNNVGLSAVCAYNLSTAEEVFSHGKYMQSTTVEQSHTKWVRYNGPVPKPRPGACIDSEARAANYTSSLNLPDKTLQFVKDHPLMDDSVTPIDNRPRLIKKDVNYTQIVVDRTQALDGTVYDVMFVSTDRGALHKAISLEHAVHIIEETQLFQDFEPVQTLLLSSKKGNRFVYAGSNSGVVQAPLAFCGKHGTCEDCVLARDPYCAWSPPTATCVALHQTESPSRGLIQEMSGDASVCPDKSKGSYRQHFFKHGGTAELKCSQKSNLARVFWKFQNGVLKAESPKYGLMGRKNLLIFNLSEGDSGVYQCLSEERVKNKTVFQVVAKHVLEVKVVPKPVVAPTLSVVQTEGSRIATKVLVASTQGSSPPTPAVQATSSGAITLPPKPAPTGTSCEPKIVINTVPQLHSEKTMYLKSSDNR

B1: TP-7 (peptide)
chain: KNKAAKG
modifications: Limits taken by convention as the full extracellular domain after the signal peptide. Species is not printed for the assayed protein; human is assumed, mouse O09126 24-733 is the alternative. Natural
As a reminder, the Kd is the concentration at which binding is half-saturated. Read a low Kd as higher affinity. Molecule B1 registered a Kd of 14.6 nM. This counts as double-digit nanomolar.

B2: TP-2 (peptide)
chain: KQKRPRH
modifications: Limits taken by convention as the full extracellular domain after the signal peptide. Species is not printed for the assayed protein; human is assumed, mouse O09126 24-733 is the alternative. Natural
B2 showed a Kd of 41.7 nM. Against the preceding molecule, the Kd is about 2.9-fold higher.
